Measurements reported in PMC2661029.
Read-outs that look alike come from different tables or passages of the source.

Key:
[1] = target: Fas death domain (UniProt P25445)
[2] = target: FADD death domain, His6-tagged (UniProt Q13158); experiment: pull-down
[3] = target: Fas death domain (UniProt P25445); experiment: crystal structure

Sequence of UniProt Q13158 (Q13158 93-191): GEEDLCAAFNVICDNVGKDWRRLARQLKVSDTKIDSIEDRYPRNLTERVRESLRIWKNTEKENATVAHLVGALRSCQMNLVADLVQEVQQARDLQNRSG

Q: For “Fas death domain (from UniProt P25445 230-314) (domain or fragment)”, which stoichiometry N [1] is on record?
A: The stoichiometry N was 4.

Q: What about the concentration at which the complex dissociates [2] of the same substance?
A: Its concentration at which the complex dissociates is 50 µM.

Q: What about the stoichiometry N [3] of the same substance?
A: Its stoichiometry N is 4.
